Legend:
HLA-A*68:02 [1] = assay: IEDB peptide-MHC binding, purified MHC/competitive/fluorescence; filed as Kd, often an IC50 or EC50 that approximates it; ≥ and ≤ were set here for values at or beyond the usual limits of such assays; settings: source organism: Entamoeba histolytica HM-1:IMSS
HLA-C*06:02 = assay: IEDB peptide-MHC binding, purified MHC/direct/fluorescence; filed as Kd, often an IC50 or EC50 that approximates it; ≥ and ≤ were set here for values at or beyond the usual limits of such assays
HLA-B*35:01 [2] = assay: IEDB peptide-MHC binding, purified MHC/competitive/fluorescence; filed as Kd, often an IC50 or EC50 that approximates it; ≥ and ≤ were set here for values at or beyond the usual limits of such assays
HLA-A*01:01 [3] = assay: as above
HLA-B*15:01 [4] = assay: as above
HLA-A*26:01 [5] = assay: as above
HLA-B*39:01 = assay: as above
HLA-B*51:01 = assay: as above
HLA-C*05:01 = assay: IEDB peptide-MHC binding, purified MHC/direct/fluorescence; filed as Kd, often an IC50 or EC50 that approximates it; ≥ and ≤ were set here for values at or beyond the usual limits of such assays
HLA-C*03:03 = assay: as above
HLA-C*12:03 = assay: as above
HLA-B*83:01 = assay: IEDB peptide-MHC binding, purified MHC/competitive/fluorescence; filed as Kd, often an IC50 or EC50 that approximates it; ≥ and ≤ were set here for values at or beyond the usual limits of such assays
HLA-B*45:06 = assay: as above
HLA-B*15:42 = assay: as above
HLA-A*02:01 [6] = assay: as above
HLA-B*18:01 = assay: as above
HLA-B*27:03 = assay: as above
HLA-B*46:01 = assay: as above
HLA-B*58:01 [7] = assay: as above
HLA-A*69:01 [8] = assay: as above
HLA-A*02:12 = assay: IEDB peptide-MHC binding, purified MHC/direct/fluorescence; filed as Kd, often an IC50 or EC50 that approximates it; ≥ and ≤ were set here for values at or beyond the usual limits of such assays
HLA-A*29:02 = assay: as above; settings: source organism: Maciel virus
HLA-A*02:19 = assay: as above
HLA-A*03:01 = assay: as above
HLA-A*02:16 = assay: as above
HLA-A*02:11 = assay: as above
HLA-A*02:03 = assay: as above
HLA-A*31:01 = assay: as above; settings: source organism: Escherichia coli O157:H7
HLA-B*44:02 = assay: as above; settings: source organism: Escherichia coli O157:H7
HLA-B*35:01 [9] = assay: as above; settings: source organism: Escherichia coli O157:H7
HLA-A*11:01 = assay: as above; settings: source organism: Escherichia coli O157:H7
HLA-B*40:01 = assay: as above; settings: source organism: Escherichia coli O157:H7
HLA-B*27:05 = assay: as above; settings: source organism: Escherichia coli O157:H7
HLA-B*58:01 [10] = assay: as above; settings: source organism: Escherichia coli O157:H7
HLA-A*01:01 [11] = assay: as above; settings: source organism: Escherichia coli O157:H7
HLA-B*15:01 [12] = assay: as above
HLA-B*07:02 = assay: as above; settings: source organism: Escherichia coli O157:H7
HLA-A*26:01 [13] = assay: as above; settings: source organism: Escherichia coli O157:H7
HLA-A*02:01 [14] = assay: as above; settings: source organism: Escherichia coli O157:H7
HLA-A*69:01 [15] = assay: as above; settings: source organism: Escherichia coli O157:H7
HLA-A*68:23 = assay: IEDB peptide-MHC binding, purified MHC/competitive/fluorescence; filed as Kd, often an IC50 or EC50 that approximates it; ≥ and ≤ were set here for values at or beyond the usual limits of such assays; settings: source organism: Zaire ebolavirus
HLA-A*32:07 = assay: as above; settings: source organism: Zaire ebolavirus
HLA-A*32:15 = assay: as above; settings: source organism: Zaire ebolavirus
HLA-A*68:02 [16] = assay: IEDB peptide-MHC binding, purified MHC/direct/fluorescence; filed as Kd, often an IC50 or EC50 that approximates it; ≥ and ≤ were set here for values at or beyond the usual limits of such assays; settings: source organism: Zaire ebolavirus
HLA-A*24:02 = assay: IEDB peptide-MHC binding, purified MHC/competitive/fluorescence; ≥ and ≤ were set here for values at or beyond the usual limits of such assays; settings: source organism: Zaire ebolavirus
[17] = source organism: Escherichia coli O139:H28 str. E24377A
[18] = source organism: Yersinia pestis Nepal516
[19] = source organism: Salmonella enterica subsp. enterica serovar Typhi
[20] = source organism: Salmonella enterica subsp. enterica serovar Typhi str. CT18
[21] = source organism: Lechiguanas virus
[22] = source organism: Escherichia coli O157:H7
[23] = source organism: Zaire ebolavirus

Sequence: CAMFWYHYI
- Kd (HLA-A*68:02 [1]): 7.2 nM
- Kd (HLA-C*06:02; source organism: Entamoeba histolytica HM-1:IMSS): 1260 nM

Sequence: EIVAEYITY
- Kd (HLA-B*35:01 [2]; [17]): 6.6 nM
- Kd (HLA-A*01:01 [3]; [17]): ≥ 20000 nM
- Kd (HLA-B*15:01 [4]; [17]): 156 nM
- Kd (HLA-A*26:01 [5]; [17]): 41.6 nM

Sequence: FASASSYAI
- Kd (HLA-B*35:01 [2]; [18]): 0.4 nM
- Kd (HLA-B*39:01; [18]): 7.4 nM
- Kd (HLA-B*51:01; [18]): 3780 nM
- Kd (HLA-C*05:01; [18]): 866 nM
- Kd (HLA-C*03:03; [18]): ≤ 1 nM
- Kd (HLA-C*12:03; [18]): 105 nM

Sequence: FVVDTTPPL
- Kd (HLA-B*35:01 [2]; [19]): ≤ 0.1 nM
- Kd (HLA-B*39:01; [19]): 7 nM
- Kd (HLA-B*83:01; [19]): ≥ 5000 nM
- Kd (HLA-B*45:06; [19]): ≥ 5000 nM
- Kd (HLA-B*15:42; [19]): ≥ 5000 nM
- Kd (HLA-A*02:01 [6]; [19]): 0.2 nM
- Kd (HLA-C*05:01; [20]): 1100 nM
- Kd (HLA-C*03:03; [20]): 2 nM
- Kd (HLA-C*12:03; [20]): 372 nM

Sequence: HTQAIEGAW
- Kd (HLA-B*18:01; [21]): ≥ 20000 nM
- Kd (HLA-B*27:03; [21]): ≥ 20000 nM
- Kd (HLA-B*39:01; [21]): ≥ 20000 nM
- Kd (HLA-B*51:01; [21]): ≥ 20000 nM
- Kd (HLA-B*46:01; [21]): ≥ 20000 nM
- Kd (HLA-B*58:01 [7]; [21]): 1.3 nM
- Kd (HLA-B*15:01 [4]; [21]): ≥ 20000 nM
- Kd (HLA-A*26:01 [5]; [21]): ≥ 20000 nM
- Kd (HLA-A*02:01 [6]; [21]): ≥ 20000 nM
- Kd (HLA-A*69:01 [8]; [21]): ≥ 20000 nM
- Kd (HLA-A*02:12; source organism: Maciel virus): ≥ 20000 nM
- Kd (HLA-A*29:02): ≥ 20000 nM
- Kd (HLA-A*02:19; source organism: Maciel virus): ≥ 20000 nM
- Kd (HLA-A*03:01; source organism: Maciel virus): ≥ 20000 nM
- Kd (HLA-A*02:16; source organism: Maciel virus): ≥ 20000 nM
- Kd (HLA-A*02:11; source organism: Maciel virus): ≥ 20000 nM
- Kd (HLA-A*02:03; source organism: Maciel virus): ≥ 20000 nM

Sequence: IGILHLILW
- Kd (HLA-B*58:01 [7]; source organism: Influenza A virus (A/Memphis/1/1978(H1N1))): 3270 nM

Sequence: ITDWLNFTL
- Kd (HLA-B*58:01 [7]; [19]): 123 nM
- Kd (HLA-A*01:01 [3]; [19]): 977 nM
- Kd (HLA-A*02:01 [6]; [19]): 2.2 nM
- Kd (HLA-C*05:01; [20]): 213 nM

Sequence: LAAEEILTL
- Kd (HLA-B*39:01; [17]): ≥ 20000 nM
- Kd (HLA-B*58:01 [7]; [17]): 748 nM
- Kd (HLA-B*15:01 [4]; [17]): ≥ 20000 nM
- Kd (HLA-A*02:01 [6]; [17]): 164 nM
- Kd (HLA-C*03:03; [17]): ≤ 1 nM
- Kd (HLA-C*12:03; [17]): 10 nM

Sequence: RPPRRGDKF
- Kd (HLA-A*31:01): ≥ 20000 nM
- Kd (HLA-B*44:02): ≥ 20000 nM
- Kd (HLA-B*35:01 [9]): 1370 nM
- Kd (HLA-A*11:01): ≥ 20000 nM
- Kd (HLA-B*40:01): ≥ 20000 nM
- Kd (HLA-A*03:01; [22]): ≥ 20000 nM
- Kd (HLA-B*27:05): ≥ 20000 nM
- Kd (HLA-B*58:01 [10]): ≥ 20000 nM
- Kd (HLA-A*01:01 [11]): ≥ 20000 nM
- Kd (HLA-B*15:01 [12]; [22]): ≥ 20000 nM
- Kd (HLA-B*07:02): 223 nM
- Kd (HLA-A*26:01 [13]): ≥ 20000 nM
- Kd (HLA-A*02:01 [14]): ≥ 20000 nM
- Kd (HLA-A*69:01 [15]): ≥ 20000 nM

Sequence: TTIGEWAFW
- Kd (HLA-A*68:23): 1.6 nM
- Kd (HLA-B*18:01; [23]): ≥ 20000 nM
- Kd (HLA-B*27:03; [23]): ≥ 20000 nM
- Kd (HLA-B*39:01; [23]): ≥ 20000 nM
- Kd (HLA-A*32:07): 3.3 nM
- Kd (HLA-B*46:01; [23]): ≥ 20000 nM
- Kd (HLA-B*83:01; [23]): ≥ 5000 nM
- Kd (HLA-B*58:01 [7]; [23]): 0.3 nM
- Kd (HLA-B*45:06; [23]): ≥ 5000 nM
- Kd (HLA-A*26:01 [5]; [23]): ≥ 20000 nM
- Kd (HLA-A*32:15): 26.9 nM
- Kd (HLA-B*15:42; [23]): ≥ 5000 nM
- Kd (HLA-A*02:01 [6]; [23]): ≥ 20000 nM
- Kd (HLA-A*69:01 [8]; [23]): ≥ 20000 nM
- Kd (HLA-A*02:12; [23]): ≥ 20000 nM
- Kd (HLA-A*68:02 [16]): ≥ 20000 nM
- Kd (HLA-A*02:19; [23]): ≥ 20000 nM
- Kd (HLA-A*03:01; [23]): ≥ 20000 nM
- Kd (HLA-B*15:01 [12]; [23]): ≥ 20000 nM
- Kd (HLA-A*02:16; [23]): ≥ 20000 nM
- Kd (HLA-A*02:11; [23]): ≥ 20000 nM
- Kd (HLA-A*02:03; [23]): ≥ 20000 nM
- IC50 (HLA-A*24:02): 113 nM

Sequence: YARYVLQKL
- Kd (HLA-C*06:02; source organism: human gammaherpesvirus 4): 874 nM
